Source: EP1500662A2 (CORNELL RESEARCH FOUNDATION, INC., dated 2005)

Columns and labels:
Test in all cases: cell-based or functional assay
[1] = target: envelope glycoprotein of HIV-1 NL4-3 (HIV-1 NL4-3)
[2] = target: envelope glycoprotein of HIV-1 CM.235 (HIV-1 CM.235)
[3] = target: envelope glycoprotein of HIV-1 UG270 (HIV-1 UG270)
[4] = target: envelope glycoprotein of HIV-1 Case C 7/86 (HIV-1 Case C 7/86)
[5] = target: envelope glycoprotein of HIV-1 BZ162 (HIV-1 BZ162)
[6] = target: envelope glycoprotein of HIV-1 94ZW103 (HIV-1 94ZW103)
[7] = target: envelope glycoprotein of HIV-1 DJ258 (HIV-1 DJ258)
[8] = target: envelope glycoprotein of HIV-1 JFRL (HIV-1 JFRL)

Binder | IC50 (nM), Human PBMC Infectivity Assays [1] | IC50 (nM), Human PBMC Infectivity Assays [2] | IC50 (nM), Human PBMC Infectivity Assays [3] | IC50 (nM), Human PBMC Infectivity Assays [4] | IC50 (nM), Human PBMC Infectivity Assays [5] | IC50 (nM), Human PBMC Infectivity Assays [6] | IC50 (nM), Human PBMC Infectivity Assays [7] | IC50 (nM), Human PBMC Infectivity Assays [8]
C52F peptide (peptide) peptide: NHTTWMEWDREINNYTSLIHSLIEESQNLQEKNEQELLELDKWASLWNWFNIKIK | 23 nM | 11 nM | 68 nM | 49 nM | 2 nM | 4 nM | 9 nM | 5 nM
C52L peptide (peptide) peptide: NHTTWMEWDREINNYTSLIHSLFEESQNLQEKAEQELFELDKWASLWNWFNIKIK | 20 nM |  | 61 nM | 17 nM | 3 nM | 3 nM | 11 nM | 6 nM
